Laboratory results taken from the RNAGym collection of RNA variant scans (doi:10.7554/elife.90254).

B1: LINE1-full (parent)
chain: UACGUAGGUGGUUUUCCCCUGAUAGUGCUAAGGGGGCCUGGAAGUUUGGACUGGGCAGAGCUCAACACAGCGUGGCAAAGUGGCUGUGGCUAGACUGCCUCUCUGGAUUCCUCGUCACUCAGCAGGGCAUCUCUGAGAGAAAUGCC

Variants of: B1
Assay: self-cleavage, relative activity (ratio to wild type); higher = more cleavage; in vitro, sequencing; the parent is a self-cleaving ribozyme

Compared with U91C C99U, U46A A138G is higher in self-cleavage: 0.12 for the first, 1.66 for the second.

Going from U47C A138G to U85C U109A, the self-cleavage falls from 1.53 to 0.12.

Compared with G70A A94G, G88C G125C is lower in self-cleavage: 0.07 for the first, 0.06 for the second.

Compared with C18U A42C, A24G C37A is higher in self-cleavage: 0.74 for the first, 1.07 for the second.

Going from U1C U119A to A31G C37A, the self-cleavage falls from 1.47 to 1.32.

First: U91C G144A
Second: U62A U73C
The self-cleavage of the first is higher: 0.47 for the first, 0.02 for the second.

First: G41A U47A
Second: A22U A65G
The self-cleavage of the first is higher: 1.77 for the first, 0.14 for the second.

Going from U96C G122A to U39A U46C, the self-cleavage rises from 0.07 to 1.5.

First: A24G G55U
Second: U104C A124G
The self-cleavage of the first is lower: 0.26 for the first, 2.57 for the second.

First: G41U C103A
Second: U100C A124G
The self-cleavage of the first is lower: 1.11 for the first, 1.32 for the second.

Compared with G4A G11A, G48A G55U is lower in self-cleavage: 0.58 for the first, 0.19 for the second.

Compared with A30G G36C, U29G U87C is lower in self-cleavage: 1.25 for the first, 0.19 for the second.

Going from U87C A136C to U23C U143C, the self-cleavage rises from 0.16 to 1.41.

Compared with U47A U104C, G60C U115C is lower in self-cleavage: 1.54 for the first, 0.02 for the second.

First: A94U A142G
Second: A57C U102A
The self-cleavage of the first is higher: 0.34 for the first, 0.06 for the second.

Going from U13A U109A to C19U U104C, the self-cleavage rises from 0.28 to 0.65.

Going from G55A U102C to C98A A138G, the self-cleavage rises from 0.17 to 0.29.

First: U100A A107G
Second: A67U A121U
The self-cleavage of the first is higher: 0.87 for the first, 0.12 for the second.

U62C G122A and A64U U96C are the same in self-cleavage: 0.04 for the first, 0.04 for the second.

Going from A6G U102C to C76A U132C, the self-cleavage rises from 0.68 to 2.08.

First: A24G A129C
Second: U15C G40A
The self-cleavage of the first is higher: 0.71 for the first, 0.3 for the second.

Compared with C51U U62A, C38A A136G is higher in self-cleavage: 0.07 for the first, 0.7 for the second.

Compared with C37G U102A, A57G G127A is higher in self-cleavage: 0.9 for the first, 0.94 for the second.

Compared with G33A A138G, U45A A77G is higher in self-cleavage: 1.36 for the first, 1.56 for the second.

First: G70C A142G
Second: C17U A140U
The self-cleavage of the first is lower: 0.14 for the first, 1.11 for the second.

Going from U46G A136U to U102A C103U, the self-cleavage rises from 1.34 to 1.41.

Going from G34C G82A to U91C U112A, the self-cleavage falls from 2.16 to 0.42.

Going from U39G A138G to C95U A141G, the self-cleavage falls from 1.01 to 0.07.

First: G58A U81G
Second: U39C U96C
The self-cleavage of the first is higher: 0.12 for the first, 0.05 for the second.

Going from A6U A138G to U100A U134C, the self-cleavage falls from 1.15 to 1.12.

Compared with U104C U108A, U85G U132C is lower in self-cleavage: 2.04 for the first, 0.14 for the second.

Going from U14A G137A to A59G C133U, the self-cleavage falls from 0.77 to 0.08.

First: G86A U134C
Second: U73A A78C
The self-cleavage of the first is lower: 0.08 for the first, 2.67 for the second.

First: G33A A142G
Second: G60A A69U
The self-cleavage of the first is higher: 1.2 for the first, 0.03 for the second.

Compared with A57U G126U, A67G G82A is higher in self-cleavage: 0.1 for the first, 0.23 for the second.

Compared with G25C U102C, C71U A117U is lower in self-cleavage: 1.31 for the first, 0.98 for the second.

Going from A64G U102A to A64G A121G, the self-cleavage rises from 0.15 to 0.28.

Compared with G55A U109C, U45C A138U is higher in self-cleavage: 0.1 for the first, 1.48 for the second.

Compared with U62C A121U, A6U A42G is higher in self-cleavage: 0.04 for the first, 0.58 for the second.

First: U26C G139A
Second: A65G U102G
The self-cleavage of the first is higher: 1.34 for the first, 0 for the second.

Going from A57G G74A to C38G A138U, the self-cleavage rises from 0.46 to 1.31.

Compared with U14C A129G, A22G A31U is lower in self-cleavage: 1.02 for the first, 0.86 for the second.

Compared with U45A A141G, U15C U100A is lower in self-cleavage: 1.06 for the first, 0.62 for the second.

Compared with A79G U87G, A43G C110U is higher in self-cleavage: 0.07 for the first, 1.8 for the second.

Going from U91G C146U to U52G U119A, the self-cleavage rises from 0.1 to 0.93.

First: A6U
Second: C37G A142G
The self-cleavage of the first is lower: 0.99 for the first, 1.25 for the second.

Going from U26A U81C to U26C G114A, the self-cleavage rises from 0.74 to 1.22.

Going from G34U U134C to A77U A78G, the self-cleavage falls from 1.57 to 0.68.

Going from A69U G97C to U1A A67C, the self-cleavage rises from 0 to 0.3.

Compared with A42G A138C, A77U C131U is higher in self-cleavage: 0.41 for the first, 1.19 for the second.

Compared with U26A A94G, C66U U73A is lower in self-cleavage: 0.24 for the first, 0.03 for the second.

First: G4A G54A
Second: A79G G126A
The self-cleavage of the first is lower: 0.6 for the first, 1.51 for the second.

First: C3U U52G
Second: C51U A57G
The self-cleavage of the first is higher: 1.17 for the first, 0.17 for the second.

Going from A78G C98U to A30G U47C, the self-cleavage rises from 0.47 to 1.09.

Going from U9C A77U to U5A C38G, the self-cleavage falls from 1.19 to 0.71.

Compared with U13G A57U, U81A A140G is higher in self-cleavage: 0.13 for the first, 1.95 for the second.

Going from U62C U87A to G74U A78U, the self-cleavage rises from 0.04 to 2.2.

First: A65G G127A
Second: A69G A129G
The self-cleavage of the first is lower: 0.05 for the first, 0.58 for the second.

First: C37A U96C
Second: A65G C71G
The self-cleavage of the first is higher: 0.08 for the first, 0.05 for the second.

Going from C76U U100C to U132A U134C, the self-cleavage falls from 2.91 to 1.61.

Going from U23C A67U to G48A U73A, the self-cleavage rises from 0.18 to 1.36.

Going from U13A A121G to A43G A65U, the self-cleavage falls from 0.88 to 0.15.

Compared with U39C C71A, U45C U91G is lower in self-cleavage: 0.09 for the first, 0 for the second.

Compared with U45G A142G, U1A A79U is lower in self-cleavage: 2.33 for the first, 0.91 for the second.

Going from A77C U102A to C84A A138G, the self-cleavage falls from 1.37 to 0.05.

Compared with U15G U39A, U5C A22G is lower in self-cleavage: 1.19 for the first, 0.57 for the second.

Compared with U46C C95U, A129U U132C is higher in self-cleavage: 0.23 for the first, 1.3 for the second.

Compared with A79U G125A, G34U A117G is higher in self-cleavage: 1.6 for the first, 2 for the second.

Compared with U85A A140G, A2G U26A is higher in self-cleavage: 0.08 for the first, 0.84 for the second.

Going from G34A U52A to U20C G60U, the self-cleavage falls from 1.7 to 0.05.

Going from A107G A117G to U45A A117G, the self-cleavage falls from 1.85 to 1.48.

First: U5C U104A
Second: A124U A138U
The self-cleavage of the first is lower: 1.28 for the first, 1.37 for the second.

Going from G21A U115A to A92G C118U, the self-cleavage falls from 1.46 to 0.07.

Going from A30G G48A to C68U U85A, the self-cleavage falls from 0.5 to 0.03.

First: U26C U100C
Second: G114A U143G
The self-cleavage of the first is lower: 1.29 for the first, 1.41 for the second.

Compared with A22U U91C, G10A U130C is higher in self-cleavage: 0.2 for the first, 2.22 for the second.

Compared with U9G A77G, U87A A121U is lower in self-cleavage: 1.55 for the first, 0.09 for the second.

Compared with U13C U45C, U91C U108C is lower in self-cleavage: 1.16 for the first, 0.62 for the second.

Compared with A92C U102C, A69C U85C is lower in self-cleavage: 0.14 for the first, 0.03 for the second.

Going from A2U A107U to C17G U102A, the self-cleavage rises from 0.52 to 1.38.

Going from C111U U130A to A78U U100A, the self-cleavage rises from 0.93 to 1.13.

Going from U62A U119A to A117C A136G, the self-cleavage rises from 0.04 to 1.79.

First: G49C U115C
Second: A42U U104A
The self-cleavage of the first is higher: 2.02 for the first, 1.15 for the second.

G48A U91C gave a self-cleavage of 0.09.
